Experimental findings from US20240309103A1 (Regeneron, published 2024) are described below.

The series deals with the molecule itself. Kind of series: SEC-MALS. On the technique in general: SEC sorts molecules by how far they enter the pores of the column.

Description: After overnight incubation in PBS at 4° C., the complexes were injected into the SEC-MALS system, which consists of a Superdex 200 Increase 10/300 GI column on an ÄKTA micro system (GE Healthcare Life Sciences), followed by a miniDAWN Treos and Optilab T-rEX (Wyatt Technology Corporation). […] Size exclusion chromatography data was evaluated using Unicorn (Version 5.20 General Electric Company), and the MALS data was evaluated using ASTRA (Version 7.0.0.69 Wyatt Technology).

B1: human NPR1 extracellular domain expressed with a C-terminal myc-myc-hexahistidine (hNPR1-MMH) (receptor)
chain: GNLTVAVVLPLANTSYPWSWARVGPAVELALAQVKARPDLLPGWTVRTVLGSSENALGVCSDTAAPLAAVDLKWEHNPAVFLGPGCVYAAAPVGRFTAHWRVPLLTAGAPALGFGVKDEYALTTRAGPSYAKLGDFVAALHRRLGWERQALMLYAYRPGDEEHCFFLVEGLFMRVRDRLNITVDHLEFAEDDLSHYTRLLRTMPRKGRVIYICSSPDAFRTLMLLALEAGLCGEDYVFFHLDIFGQSLQGGQGPAPRRPWERGDGQDVSARQAFQAAKIITYKDPDNPEYLEFLKQLKHLAYEQFNFTMEDGLVNTIPASFHDGLLLYIQAVTETLAHGGTVTDGENITQRMWNRSFQGVTGYLKIDSSGDRETDFSLWDMDPENGAFRVVLNYNGTSQELVAVSGRKLNWPLGYPPPDIPKCGFDNEDPACNQDHLSTLEEQKLISEEDLGGEQKLISEEDLHHHHHH
notes: also called hNPR.mmh; monomeric human NPR1
In the case of B1, the binding result is “binds”.
